Read-outs that look alike come from different tables or passages of the source.
Legend:
[1] = biological target: native Tsal proteins in G. m. morsitans saliva (Glossina morsitans morsitans (endogenous in saliva)); assay: SPR; 4000 RU G. m. morsitans saliva amine-coupled (10 mM sodium acetate pH 4.5) on a CM5 chip; purified Nb analytes 500 to 0.976 nM; BIAcore T200; contact 180 s, dissociation 600 s, 10 ul/min; Langmuir 1:1 fit
[2] = biological target: native Tsal proteins in G. m. morsitans saliva (Glossina morsitans morsitans (endogenous in saliva)); assay: ELISA; competitive ELISA: 250 ng G. m. morsitans saliva coated per well, plasma (immune, naive or control) applied 1 h, then HRP-conjugated Nb (1:160 or 1:320) 1 h; ABTS, O.D. 405 nm
[3] = biological target: native Tsal proteins in G. m. morsitans saliva (Glossina morsitans morsitans (endogenous in saliva)); assay: as above; remark: listed apart in the source

Kd [1] [nM] | koff [1] [s⁻¹] | kon [1] [M⁻¹ s⁻¹] | mean endpoint O.D.405nm of controls (control porcine plasma) [2] | mean endpoint O.D.405nm of controls (control mouse plasma) [3] | mean endpoint O.D.405nm of controls (control porcine plasma) [3] | Binder
2.7 | 0.0035 | 1.3e+06 |  |  |  | TsalNb-11 (VHH) VHH: QVQLQESGGGLVQPGESLRLSCAASEFTLDYYAMAWYRQAPGKQREGVSCITSSGGRTNYADSVKGRFTISRENGKNTVYLQMSSLKPGDTAVYYCAATEWLAGTKCLGSHEYDYWGQGTQVTVSS
 |  |  | 2.29 O.D._(405nm) | 2.35 O.D._(405nm) | 2.24 O.D._(405nm) | TsalNb-11-HRP (VHH) VHH: QVQLQESGGGLVQPGESLRLSCAASEFTLDYYAMAWYRQAPGKQREGVSCITSSGGRTNYADSVKGRFTISRENGKNTVYLQMSSLKPGDTAVYYCAATEWLAGTKCLGSHEYDYWGQGTQVTVSS
18 | 0.017 | 970000 |  |  |  | TsalNb-8 (VHH) VHH: QVQLQESGGGLVQPGGSLRLSCAASVLTLDYYAMAWYRQAPGKQREGVSCITSSGGRTNYADSVKGRFTISRDNAKNMVYLQMNSLKPEDTAVYYCAATEWLAGTKCLSSHEYDYWGQGTQVTVSS
 |  |  | 2.23 O.D._(405nm) | 2.26 O.D._(405nm) | 2.31 O.D._(405nm) | TsalNb-5-HRP (VHH) VHH: QVQLQESGGGLVQPGGSLRLSCAGSGLTLDYYAMGWYRQAPGKQREGVSCITSSGGRTNYADSVKGRFTISRDNAKNTVSLQMNSLKPEDTAVYYCAATEWLAGTKCLLSHEYDYWGQGTQVTVSS
0.47 | 0.00039 | 830000 |  |  |  | TsalNb-12 (VHH) VHH: QVQLQESGGGLVQPGGSLRLSCTASGSIFSINYANWYRQAPGKQRELVAGITSDGSTNYADSVKGRFTISRDNAKNTVYLQMNRLTPEDTAVYYCKPRAWLTGRWENYWGQGTQVTVSS
0.79 | 0.001 | 1.3e+06 |  |  |  | TsalNb-10 (VHH) VHH: QVQLQESGGGLVQVGGSLRLSCAASGSIFSNNYMGWYRQAPGKQRELVAGITSGGSTNYADSVKGRFTISRDNAKNTVYLQMNNLKPEDTAVYNCKPRGWLTGRWENYWGQGTQVTVSS

Continued, binder first:

Binder | Kd [1] [nM] | koff [1] [s⁻¹] | kon [1] [M⁻¹ s⁻¹] | mean endpoint O.D.405nm of controls (control porcine plasma) [2] | mean endpoint O.D.405nm of controls (control mouse plasma) [3] | mean endpoint O.D.405nm of controls (control porcine plasma) [3]
TsalNb-5 (VHH) VHH: QVQLQESGGGLVQPGGSLRLSCAGSGLTLDYYAMGWYRQAPGKQREGVSCITSSGGRTNYADSVKGRFTISRDNAKNTVSLQMNSLKPEDTAVYYCAATEWLAGTKCLLSHEYDYWGQGTQVTVSS | 4.4 | 0.004 | 910000 |  |  | 
TsalNb-1 (VHH) VHH: QVQLQESGGGLVQVGGSLRLSCTASGSIFSINYANWYRQAPGKQRELVAGITSDGSTNYADSVKGRFTISRDNAKNTVYLQMNRLTPEDTAVYYCKPRAWLTGRWENYWGQGTQVTVSS | 0.44 | 0.00037 | 850000 |  |  | 
TsalNb-2 (VHH) VHH: QVQLQESGGGLVQVGGSLRLSCQASGSIFSNSYMGWYRQAPGKQRELVAGITSGGSTNYADSVKGRFTISRDNAKNTVYLQMNSLKPEDTAVYYCKPRAWLTGRWENYWGQGTQVTVSS | 0.64 | 0.00077 | 1.2e+06 |  |  | 
TsalNb-3 (VHH) VHH: QVQLQESGGGLVQVGGSLRLSCAVSGSIFSNNYMGWYRQAPGKQRELVAGITSGGSTNYADSVKGRFTISRDNAKNTVYLQMNSLLPEDTAVYYCKPRGWLTGRWENYWGQGTQVTVSS | 0.54 | 0.00051 | 930000 |  |  | 
TsalNb-4 (VHH) VHH: QVQLQESGGGLVQVGGSLRLSCTASGSIFSINYAGWYRQAPGKQRELVAGITSGGSTNYADSVKGRFTISRDSAKNTVYLQMNSLKAEDTAVYYCKPRAWLTGRWENYWGQGTQVTVSS | 0.44 | 0.0005 | 1.1e+06 |  |  | 
